Assay results published in patent publication US20110217282.

How the values were obtained:
[1] = target: T1, C-terminal histidine-tagged YgiT
T1 chain: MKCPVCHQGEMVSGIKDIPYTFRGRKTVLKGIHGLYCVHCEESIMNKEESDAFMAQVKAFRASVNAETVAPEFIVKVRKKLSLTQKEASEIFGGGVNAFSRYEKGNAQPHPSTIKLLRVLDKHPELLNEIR

MazE, P0AE72 = target: T2, MazE, P0AE72
T2 chain: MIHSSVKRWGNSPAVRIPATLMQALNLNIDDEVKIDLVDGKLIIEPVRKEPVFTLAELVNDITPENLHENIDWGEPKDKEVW

B1: MazF (protein)
chain: MVSRYVPDMGDLIWVDFDPTKGSEQAGHRPAVVLSPFMYNNKTGMCLCVPCTTQSKGYPFEVVLSGQERDGVALADQVKSIAWRARGATKKGTVAPEELQLIKAKINVLIG
[1]
  cleavage of MS2 RNA (agarose gel): when MazF was incubated with purified YgiT-H, its activity was not inhibited
MazE, P0AE72
  cleavage of MS2 RNA (agarose gel): its activity was completely inhibited when it was preincubated with purified MazE, the antidote of MazF
